From the supplement of paper PMC9732359
± gives the uncertainty stated by the source.

Assay: protein stability index of a GFP-peptide fusion (yeast GPS) (PSI 1-4); higher = more stable; sorted into four equal gates, so the index is relative within each strain
How it was run: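 Plasmids in a pooled yeast library fused tiled 17-residue yeast protein peptides downstream of GFP and also expressed Cherry. Mid-log cultures grown without leucine were sorted into four equal gates by GFP/Cherry fluorescence ratio. Each gate's plasmids were PCR-amplified and Illumina-sequenced, and reads were matched to strains by barcodes. The protein stability index is derived by multiplying each gate's read frequency by its gate number and summing the results.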

Sequence	protein stability index (doa10∆)	protein stability index (pdr5∆)	protein stability index (san1∆)	protein stability index (ubr1∆)
ILDINVSSSKNKKSEEN [SWP82]	3.36 ± 0.15	3.21 ± 0.083	3.27 ± 0.08	3.27 ± 0.079
SIGSIYQWNLDGLQQLD [RPN1]	3.26 ± 0.1	3.4 ± 0.068	1.93 ± 0.1	2.96 ± 0.067
KRIKGLEFSALSAADIV [RPO31]	3.09 ± 0.09	3.15 ± 0.076	3.15 ± 0.061	3.24 ± 0.067
DYVTNPDTKISSAAILG [RPN1]	2.42 ± 0.087	2.43 ± 0.1	2.21 ± 0.17	1.91 ± 0.1
DASPAPSNESCSPWSLQ [SRB5]	2.72 ± 0.071	2.43 ± 0.052	2.86 ± 0.046	2.33 ± 0.033
IEEHPTVVDAIDNSDEI [IRR1]	3.35 ± 0.13	3.12 ± 0.076	3.38 ± 0.069	3.1 ± 0.06
LLSIKLPGKVNTKEEFA [SNF5]	2.15 ± 0.17	1.82 ± 0.083	1.78 ± 0.16	2.51 ± 0.23
DKQYRTAVATLLKELSK [SMC3]	2.49 ± 0.082	2.13 ± 0.084	3.06 ± 0.061	2.72 ± 0.071
DTYPYLTGEWSTKFDYP [FAS1]	3.19 ± 0.073	2.96 ± 0.079	2.85 ± 0.063	2.94 ± 0.057
IDSFFLYVLPSFNIPRL [YMR129W/POM152]	1.77 ± 0.05	1.57 ± 0.038	1.64 ± 0.093	1.26 ± 0.031
LRYYKNIWLNNKIINWE [NUT1]	3.56 ± 0.18	2.67 ± 0.087	2.2 ± 0.22	3.39 ± 0.16
LASEVGDPALVYKFMSL [ECM29]	2.32 ± 0.069	2.4 ± 0.067	2.34 ± 0.093	2.05 ± 0.034
NLQGDLQAIQEKLNKTD [ITC1]		3.33 ± 0.21	3.33 ± 0.17	3.2 ± 0.16
ETGYMSRRLMKSLEDLS [RPO31]	2.45 ± 0.12	3.13 ± 0.25	3.02 ± 0.15	
FVLLEIEPVTKVSSLKM [YCS4]	2.34 ± 0.049	2.18 ± 0.066	2.48 ± 0.059	2.35 ± 0.054
VSDSNDDVRRAAVIALG [RPN2]	3.26 ± 0.1	3.26 ± 0.13	2.7 ± 0.17	3.42 ± 0.14
LALENGEITKTENEKFI [NUT1]	3.28 ± 0.15	3.45 ± 0.11	3.44 ± 0.066	3.3 ± 0.14
VIAHLTVEALDFREKAL [RET1]	2.79 ± 0.11	2 ± 0.058	2.12 ± 0.1	2.57 ± 0.062
ANPKKLALMTAHSLSPK [CDC53]	2.43 ± 0.052	2.78 ± 0.054	2.72 ± 0.057	2.32 ± 0.036
GGLKNGVLYQGNIQISE [DIS3]	3.25 ± 0.098	3.27 ± 0.085	2.9 ± 0.072	3.17 ± 0.065
KKPGKIAKPNTANAKHT [SMB1]	2.87 ± 0.071	2.73 ± 0.091	2.75 ± 0.089	2.85 ± 0.066
WCTTCKSAENIIKMTIP [RET1]	3.08 ± 0.077	3.1 ± 0.095	3.11 ± 0.067	3.03 ± 0.071
NILNMSMNNDFQQQQQQ [PGD1]	2.68 ± 0.078	3.04 ± 0.084	2.83 ± 0.066	2.67 ± 0.071
KSSLYSAQDLLDKHERK [YIL149C/MLP2]	3.05 ± 0.084	3.01 ± 0.075	2.83 ± 0.11	3.15 ± 0.036
SLEDKILRMGAFRTIES [RRI1]	2.24 ± 0.17	2.04 ± 0.2	1.83 ± 0.18	2.28 ± 0.073

Sequence	protein stability index (doa10∆)	protein stability index (pdr5∆)	protein stability index (san1∆)	protein stability index (ubr1∆)
RNNVMLLIATNLKEYNK [SRB8]	2.44 ± 0.11	2.11 ± 0.099	2.74 ± 0.081	2.21 ± 0.072
ELTKNPNSNVELAGGNA [SMC1]		3.01 ± 0.15	3.32 ± 0.086	3.37 ± 0.12
SLIIDQQENSKSGKRKP [RPC31]	2.71 ± 0.099	2.7 ± 0.1	2.69 ± 0.086	2.7 ± 0.092
LKPVDKLKPMNIERKQT [SIN4]	2.82 ± 0.11	3.05 ± 0.11	2.83 ± 0.088	3.04 ± 0.11
EYLKRVSVPVSGQKTNR [SIR3]	2.54 ± 0.1	2.52 ± 0.087	3.06 ± 0.13	2.83 ± 0.16
PVQIVKRITQITIEPGV [RPS20]	1.74 ± 0.15	1.79 ± 0.25	1.35 ± 0.21	1.65 ± 0.12
AFAFCIPVYCFSHPAHQ [YCG1]	1.64 ± 0.045	1.81 ± 0.044	1.76 ± 0.059	1.81 ± 0.045
ELEQLSSEALEAARICA [RPL10]	1.21 ± 0.071	1.35 ± 0.059	1.33 ± 0.14	1.12 ± 0.06
FYDYIKERSIVVGRTTR [REC8]	1.9 ± 0.077	1.72 ± 0.064	1.22 ± 0.13	1.17 ± 0.045
YPDLCSIYDKWTDPNLK [RPN1]	2.69 ± 0.091	2.66 ± 0.072	2.21 ± 0.11	2.93 ± 0.085
PPPGLDELETKAEKKVE [PRP8]	3.02 ± 0.06	3.21 ± 0.048	3.13 ± 0.05	3.08 ± 0.049
SFKGSPNERKAKQAKIR [SNF2]	3.36 ± 0.12	3.56 ± 0.12	3.39 ± 0.18	3.12 ± 0.15
FEIQGVPPMKLAYSKIV [YMR129W/POM152]	1.59 ± 0.074	2.01 ± 0.063	1.53 ± 0.1	1.74 ± 0.062
NKLVMKSKFNKSNRSYS [GAL11]	2.92 ± 0.059	2.99 ± 0.099	3.01 ± 0.064	3.01 ± 0.053
MIISGSRDKTIKVWTIK [ASC1]	2.48 ± 0.084	2.71 ± 0.092	2.49 ± 0.11	2.95 ± 0.087
ISEINFLHESSFDSIDH [CSI1]	2.54 ± 0.05	2.95 ± 0.06	2.51 ± 0.069	2.84 ± 0.041
KLLKIPKFISEALAFTS [YDL116W/NUP84]	2.32 ± 0.093	2.46 ± 0.086	2.24 ± 0.1	2.75 ± 0.05
NHNKTKLLKSLKNTKYF [PRP8]	1.8 ± 0.078	1.83 ± 0.052	1.54 ± 0.095	2.15 ± 0.073
VSLQNFSSSVSLSYMAF [RRP40]	2.22 ± 0.047	1.64 ± 0.041	1.76 ± 0.074	1.83 ± 0.04
VLGTPDQKIWPYLEKYP [SSN3]	2.42 ± 0.077	1.72 ± 0.053	2.3 ± 0.068	2.13 ± 0.059
DVKISNDFFDNGDNLYG [RPN4]	2.39 ± 0.086	2.93 ± 0.063	2.67 ± 0.12	1.69 ± 0.057
NDELVELLANKCPLLVE [GRR1]	2.08 ± 0.058	2.13 ± 0.04	2.1 ± 0.078	1.96 ± 0.035
LWDSKELEQLVEFNRKV [RPN3]	2.97 ± 0.1	2.62 ± 0.093	3.2 ± 0.068	2.81 ± 0.084
DRPGSKFHKREVVEAVT [RPL3]	3.04 ± 0.15	1.96 ± 0.14	2.02 ± 0.19	2.41 ± 0.13
